How the values were obtained:
[1] = molecular target: T1, TIA-1 full length (short isoform, p40) (human, UniProt P31483-2 1-375); assay: SAXS; 500 mM arginine; SASDJL5; FA: 1 nM Fl-TC1; RRM23 in 10 mM HEPES pH 7.2, 50 mM NaCl, 1 mM DTT (legend: 20 mM HEPES); full-length TIA-1 in 20 mM sodium phosphate, 60 mM KCl, 0.5 M arginine-HCl, 1 mM MgCl2, 2 mM DTT, 0.5 mM EDTA, pH 7; Csat at room temperature; settings: protein: recombinant; tags: His-tag removed by TEV (untagged)
T1 sequence: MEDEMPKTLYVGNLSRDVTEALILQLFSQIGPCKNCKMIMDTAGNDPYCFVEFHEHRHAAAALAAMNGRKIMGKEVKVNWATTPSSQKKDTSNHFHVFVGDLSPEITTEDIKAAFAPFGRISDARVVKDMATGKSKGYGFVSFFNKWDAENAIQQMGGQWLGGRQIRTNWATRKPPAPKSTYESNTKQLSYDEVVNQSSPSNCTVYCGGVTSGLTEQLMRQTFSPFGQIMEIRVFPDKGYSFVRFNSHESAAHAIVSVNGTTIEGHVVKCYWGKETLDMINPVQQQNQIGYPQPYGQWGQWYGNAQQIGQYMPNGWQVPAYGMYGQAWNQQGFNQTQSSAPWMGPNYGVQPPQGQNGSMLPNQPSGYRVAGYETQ

[2] = molecular target: T1, TIA-1 full length (short isoform, p40); assay: co-sedimentation with condensed phase (PAGE); 4:1 TIA-1:TC site, 10 uM TIA-1; FA: 1 nM Fl-TC1; RRM23 in 10 mM HEPES pH 7.2, 50 mM NaCl, 1 mM DTT (legend: 20 mM HEPES); full-length TIA-1 in 20 mM sodium phosphate, 60 mM KCl, 0.5 M arginine-HCl, 1 mM MgCl2, 2 mM DTT, 0.5 mM EDTA, pH 7; Csat at room temperature; settings: protein: recombinant; tags: His-tag removed by TEV (untagged)
[3] = molecular target: T1, TIA-1 full length (short isoform, p40); assay: fluorescence anisotropy; 0.5 M arginine-HCl, 60 mM KCl, 1 mM MgCl2; KD not in text; FA: 1 nM Fl-TC1; RRM23 in 10 mM HEPES pH 7.2, 50 mM NaCl, 1 mM DTT (legend: 20 mM HEPES); full-length TIA-1 in 20 mM sodium phosphate, 60 mM KCl, 0.5 M arginine-HCl, 1 mM MgCl2, 2 mM DTT, 0.5 mM EDTA, pH 7; Csat at room temperature; settings: protein: recombinant; tags: His-tag removed by TEV (untagged); label: 5'-fluorescein
[4] = molecular target: T1, TIA-1 full length (short isoform, p40); assay: SAXS; 500 mM arginine; SASDJK5; FA: 1 nM Fl-TC1; RRM23 in 10 mM HEPES pH 7.2, 50 mM NaCl, 1 mM DTT (legend: 20 mM HEPES); full-length TIA-1 in 20 mM sodium phosphate, 60 mM KCl, 0.5 M arginine-HCl, 1 mM MgCl2, 2 mM DTT, 0.5 mM EDTA, pH 7; Csat at room temperature; settings: protein: recombinant; tags: His-tag removed by TEV (untagged)

UUUUUACUCC (ssRNA) [UC1]
binding result [1]: binds

TTTTTACTCCAATTTTTACTCC (ssDNA) [TC2]
binding result [2]: binds

B1: TC5 (ssDNA)
DNA: TTTTTACTCCAATTTTTACTCCAATTTTTACTCCAATTTTTACTCCAATTTTTACTCC
binding result [2]: binds

TTTTTACTCCAATTTTTACTCCAATTTTTACTCC (ssDNA) [TC3]
binding result [2]: binds

TTTTTACTCC (ssDNA) [TC1 (5'-fluorescein)]
binding result [3]: binds

TTTTTACTCC (ssDNA) [TC1]
binding result [4]: binds

B2: TC9 (ssDNA)
DNA: TTTTTACTCCAATTTTTACTCCAATTTTTACTCCAATTTTTACTCCAATTTTTACTCCAATTTTTACTCCAATTTTTACTCCAATTTTTACTCCAATTTTTACTCC
binding result [2]: binds

B3: TC7 (ssDNA)
DNA: TTTTTACTCCAATTTTTACTCCAATTTTTACTCCAATTTTTACTCCAATTTTTACTCCAATTTTTACTCCAATTTTTACTCC
binding result [2]: binds

From article PMC7969032, “Tandem RNA binding sites induce self-association of the stress granule marker protein TIA-1”
